The supplement of paper PMC10567573
± gives the standard deviation.

Test: protein stability index of a GFP-peptide fusion (GPS, HEK-293T) (PSI 1-6); higher = more stable
Conditions: c terminus: a fixed tail appended
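Also: 24-mer peptide tiles fused after GFP, lentivirally expressed, FACS-sorted into six equal bins by GFP/DsRed ratio, decoded by Illumina sequencing, PSI is the read-weighted mean bin number.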

Sequence	protein stability index (treatment: DMSO)	protein stability index (treatment: MLN4924 1 uM, 8 h)
RETLKRKVSGNRCASPVTGPGSKR [ESR2]	3.92 ± 0.32	4.1 ± 0.2
DRIATTDDTTAMASASSSATGSFS [MAGEA10]	5.2 ± 0.11	5.28 ± 0.09
PGSCGAGAPSPGSSDVSTAGTGAS [ELF3]	4.98 ± 0.29	5.08 ± 0.17
YNDGVINLLEKFFEMKKGQCKDAL [SNAP91]	2.31 ± 0.3	2.34 ± 0.2
IEERKQGLEQFINKVAGHPLAQNE [SNX3]	4.54 ± 0.13	4.31 ± 0.47
CESDIWALGCVMYTMLLGRPPFET [PLK2]	3.72 ± 0.55	3.59 ± 0.71
LPFERLAFVLSSNSLKHCTELELF [KLHL13]	2.73 ± 0.6	2.76 ± 0.62
KYGDIPRGIFVVRGENVVLLGEID [LSM1]	2.27 ± 0.093	2.4 ± 0.32
PVVGSTRRLYEKKIFEYETQRRRL [EMD]	3.16 ± 0.25	3.18 ± 0.06
DAERDGVKVPTTLAEYCVKTKAPA [CDC34]	5.13 ± 0.067	5.02 ± 0.26
RYFIADLPHLQDSFVDKLLDLMPR [INTS4]	2.16 ± 0.29	2.27 ± 0.29
MATEGLHENETLASLKSEAESLKG [GNB5]	5.31 ± 0.23	5.2 ± 0.15
DLAYQLQVAKTKQQIEEQRVQVQV [FLOT1]	3.4 ± 0.19	3.73 ± 0.22
GQPLRPLVPDASKQRLMENTEDWR [PDLIM7]	4.54 ± 0.24	4.72 ± 0.18
DPLANGCQGVSEAAHRLARRLYHL [PSD2]	3.24 ± 0.18	3.52 ± 0.059
TLLPASLFVNSHPGIDRPGMLCSF [DCAF4]	2.31 ± 0.36	2.2 ± 0.22
LAMNYKHGDPIPKVEFTEEEIKTW [TPH1]	4.21 ± 0.33	4.35 ± 0.24
GTLVQLLGSDDINVVTCAAGILSN [CTNNB1]	2.32 ± 0.52	2.28 ± 0.12
NSFSLNSSISSSARRTTRSEPIRR [MAP2]	4.46 ± 0.27	4.53 ± 0.13
SQFLKLKTSVEKANAQIQILTRSW [CD207]	2.19 ± 0.59	2.09 ± 0.29
LLHLDLKPANILLDAHYHVKISDF [RIPK4]	2.45 ± 0.32	2.36 ± 0.48
ELLTDKSCQSFISWTGDGWEFKLS [ETS1]	2.24 ± 0.28	2.55 ± 0.37
IKSEDMLKILKPSIPLERIHFDSY [FBXO33]	2.43 ± 0.23	2.36 ± 0.29

Sequence	protein stability index (treatment: DMSO)	protein stability index (treatment: MLN4924 1 uM, 8 h)
LFLMDLSEGELGGPSEPGGTHPED [RHOBTB2]	4.45 ± 0.22	4.33 ± 0.23
LNVTNYCHLAHELRLSCMERKKVQ [DCAF4]	2.61 ± 0.19	2.36 ± 0.21
EFIQEIRRQLEACQRERAFSVKFE [OAS1]	2.29 ± 0.31	2.27 ± 0.56
SERCQRQLQSLCRGLGLGGRRLKS [FANCE]	3.22 ± 0.36	3.49 ± 0.47
FLPTALLCAYGFFASLRPSEPFLT [SLC19A2]	3.25 ± 0.56	3.26 ± 0.59
ISLNMCLLGALVLLGLGVLLFSGG [PBXIP1]	2.03 ± 0.24	2.15 ± 0.2
SVVRRCVKVLAGQEYAAKIINTKK [CAMK2A]	2.72 ± 0.35	2.52 ± 0.5
RSQMQGPRTRARLGANEVLLVVGG [KLHL12]	2.39 ± 0.39	2.62 ± 0.37
NIHENKRTGSLFKIWLVVPSLLEL [KLHDC10]	3.16 ± 0.49	3.15 ± 0.42
GLPGAEGVEPAPWAQLEAPARLLL [FANCE]	3.33 ± 0.45	3.3 ± 0.05
MEEGERSPLLSQETAGQKPLSVHR [TSPAN10]	5.08 ± 0.11	5.02 ± 0.18
FQFASIDVAGNLDYKALSYVITHG [MYL5]	2.51 ± 0.47	2.29 ± 0.31
PAITATLLDFMCRIIPNFYPPLEG [INTS3]	3.07 ± 0.13	3.1 ± 0.32
TPLQQVSIEEILEEQRVEQQTKLE [LSM1]	5.37 ± 0.17	5.34 ± 0.29
SMQAVLDYLYTKQLSPNLDLDPLE [RHOBTB1]	2.47 ± 0.37	2.19 ± 0.47
YYERVLKRKTFNKVLGHVNNILIS [GDAP1]	2.35 ± 0.35	2.64 ± 0.7
MAALNSQTAVQFQQYAAQQYPGNY [ACBD3]	3.09 ± 0.38	3.16 ± 0.1
LRQKGNRNTHKDLLRFAQVFSQMI [FEM1B]	2.38 ± 0.56	2.26 ± 0.32
KIIREIDFYREDEDEEEEEGGEGE [TRIM55]	5.18 ± 0.26	5.06 ± 0.24
WEIAKAEVEKRGINGSEGDGAEIA [DYNC2LI1]	5.26 ± 0.22	5.18 ± 0.27
SLVTVGKHLTARVLCLIVLPLALY [POMT2]	2.63 ± 0.58	2.58 ± 0.33
SMIQEQFKKGKNPTGLLALQQIAD [ADD1]	3.08 ± 0.18	3.17 ± 0.32
GEEDFSLSATIGSILRELDTSMDG [SERTAD3]	3.75 ± 0.2	3.93 ± 0.44

Sequence	protein stability index (treatment: DMSO)	protein stability index (treatment: MLN4924 1 uM, 8 h)
VVTTEHILVSVAAGVSLSTLEELL [PYCR3]	3.04 ± 0.72	2.78 ± 0.66
RRSVRKNHMYSCRFSRQCVVDKDK [HNF4A]	3.02 ± 0.24	3.2 ± 0.24
LLSCLSKSNNRLKSLSIQYLELDR [FBXO39]	2.54 ± 0.37	2.01 ± 0.33
VPPRMGSRAGGPTTPLSPTRLSRL [LMNB1]	3.92 ± 0.57	3.85 ± 0.56
GTGTGPEDGRPSLGSPYGQPPRFP [PDLIM4]	4.37 ± 0.21	4.53 ± 0.22
PVASSGEFFGSASQPAVELVSGSQ [CLINT1]	4.57 ± 0.16	4.82 ± 0.21
GYNWCHDRNVVTIFSAPNYCYRCG [PPP2CA]	2.4 ± 0.41	2.27 ± 0.46
DKLALCHLELTRKLQDLIKDVLRY [FCHO1]	2.9 ± 0.48	2.74 ± 0.43
LSKSNKPIHTIILNPHVHLVGDDA [CAMK2D]	3.12 ± 0.3	2.95 ± 0.48
KGGYKEFFPQHPNFCEPQDYRPMN [CDC25B]	3.52 ± 0.18	3.37 ± 0.2
PLCNFNITESFTELARIVLLRHGM [RAB40B]	2.8 ± 0.87	2.19 ± 0.97
RRSFLNAHHRSGAQVFPESPESES [GNAS]	5.02 ± 0.25	5.03 ± 0.11
KEMEQLFSQYGRIITSRILVDQVT [ELAVL3]	2.94 ± 0.24	3.41 ± 0.58
RVYPKCTWLTTPKSTWPRYSKPGL [TCF25]	2.59 ± 0.23	2.46 ± 0.12
SHLLVVEPEKLYAMPDPAGPDGHL [ESRRA]	3.68 ± 0.17	3.82 ± 0.27
SDVVEYAKEKLESFIKNSDSFDKF [PCMTD1]	3.7 ± 0.17	4.16 ± 0.38
NSSQLLLRRHAGLLDGLARRVGIL [SCARA5]	2.72 ± 0.027	2.69 ± 0.28
LNQKTSEKMKKRKMSNSFHGIRPP [RHOBTB3]	3.95 ± 0.34	4.23 ± 0.11
LYFQWYIFYFVIQRKKWVDLAWMI [FADS1]	2.25 ± 0.7	3.09 ± 0.93
HQEGAKMAVRLAGGLQKMVALLNK [CTNNB1]	2.4 ± 0.11	2.42 ± 0.27
SSFIKTEPSSPASLTDSVNHHSPG [ESRRG]	4.79 ± 0.17	4.9 ± 0.18
SRVAHIERTRKPYNNDIDYYAKRN [GALNT9]	3.77 ± 0.37	3.91 ± 0.33
NDIFQAANPYWTSRGSSVSMSGGR [TRIM63]	3.76 ± 0.34	3.63 ± 0.062

Sequence	protein stability index (treatment: DMSO)	protein stability index (treatment: MLN4924 1 uM, 8 h)
HAGQGGLFYSAEVEMLCDQAWGSM [CCDC3]	2.53 ± 0.77	2.47 ± 0.39
QEAEEPKARVLRSKSLCHDEIENL [CDC25B]	5.37 ± 0.089	5.57 ± 0.23
NVEDHINPKLPNISLDVLQPSFPE [POMT2]	4.58 ± 0.22	4.7 ± 0.15
MVRKIGCYAAMKKKIYAMGGGSYG [GAN]	2.28 ± 0.17	2.45 ± 0.38
YPASIVDEPTFKVLLKTADPRYEL [ZBED1]	2.89 ± 0.26	3.27 ± 0.29
PAVEACENRRKVLYQRAPRNIHRH [TCF25]	3.88 ± 0.23	3.81 ± 0.15
LPFLAHALYVQAPTVTIEGFLQAL [TRIP13]	2.93 ± 0.66	2.76 ± 0.51
AELEQHLEQEQEFQVNKLMKKIKK [CCDC6]	4.61 ± 0.26	5.13 ± 0.38
THSPQKSHQCAHCEKTFNRKDHLK [PLAGL1]	3.97 ± 0.16	4.05 ± 0.28
IYVIGGYDGRSRLSSVECLDYTAD [KLHL12]	2.86 ± 0.46	2.63 ± 0.41
LLLEMLTFNPHKRISAFRALQHSY [CDK4]	2.43 ± 0.32	2.41 ± 0.25
AEDKAAVERSKMIDRNLREDGEKA [GNAI1]	5.691 ± 0.042	5.34 ± 0.13
AGLFSQEQYERNKSSSSSSSSSSS [TMEM40]	5.16 ± 0.083	5.32 ± 0.2
PATSPLVLAIPRRLRVELECEEGE [TRIM35]	4.92 ± 0.22	4.78 ± 0.13
LALRTLPGPSWVRGSGPSVLSRLQ [ALKBH7]	2.62 ± 0.14	2.48 ± 0.3
VQPCSAVHLLLKKVLFALCALNAL [FAM189A2]	2.26 ± 0.37	2.35 ± 0.6
ITTNRFYGPQVNNISHTKEKKKGK [WASL]	4.17 ± 0.42	4.37 ± 0.29
MQRGARLPAEVAGLSQVLLRGGGQ [POMT2]	3.6 ± 0.27	3.64 ± 0.21
GGHSRERADEPQWSLYPSDSQVSE [CHGB]	5.28 ± 0.27	5.24 ± 0.34
GCKGFFRRSVRKNHMYSCRFSRQC [HNF4A]	2.15 ± 0.18	2.27 ± 0.36
